The record followed here is patent US11999794B2, “Human mesothelin chimeric antigen receptors and uses thereof” (Novartis AG, priority 2013, dated 2024).

In series [1] the target is T1, biotinylated mesothelin ECD (Homo sapiens, UniProt Q13421).
T1 construct: made in house; host or cells: HEK293F (transient)
Put plainly: Surface plasmon resonance (Biacore T200) binding affinity of purified scFvs. Conditions: for Kd: 1:1 Binding or Steady State Affinity fit; for ka / kd: 1:1 Binding fit. As to the method: Binding affinity of purified scFvs was measured on a Biacore T200 system. Briefly, recombinant human biotinylated mesothelin ECD was immobilized on a streptavidin (SA) sensor chip surface at a density of 150 RU. Purified scFv was injected over the chip under constant flow rate at three-fold serial dilutions. Association and dissociation rates of the protein complex were monitored for 270 seconds and 400 seconds, respectively. Double referencing was performed against a blank immobilized flow cell and a buffer blank. Affinity was determined with a Langmuir 1:1 binding model when possible, for those scFVs where accurate fitting was not possible due to fast on and off rates, the steady state model was used.

Series [2] can be described thus: Size exclusion chromatography (oligomerization state of expressed scFvs). Format: physicochemical. Conditions: purified scFv. On the procedure: Size exclusion chromatography was performed to determine the oligomerization states of the expressed scFvs. 25 μg each was injected onto a TSKGel Super SW3000 4.6 mm×300 mm column (Tosoh Bioscience) heated to 35° C. The scFvs were eluted at 0.3 mL/min in 750 mM arginine, 1 mM EDTA, 20 mM sodium phosphate, 250 mM sodium chloride, pH 7.2; the UV absorbance was monitored at 280 nm.
A general note: Size exclusion chromatography separates by hydrodynamic size, large species first.

Series [3] concerns the target T1, biotinylated mesothelin ECD. As to the kind of experiment: SPR relative epitope binning in comparison to SS1. Format: binding. Conditions: 50 nM SS1 captured first, then scFv at 100 nM. As to the method:
In embodiments, the competition assay is an SPR-based assay. Briefly, the antigen, e.g., human mesothelin, is immobilized on a surface. Through a microflow system, a reference antibody is injected over the antigen layer. Upon binding of the reference antibody to the antigen, an increase in signal, typically expressed in response units (RU) is detected, e.g., reference signal. After a desired time, a test antibody is injected over the antigen layer. If the test antibody binds to a different region or epitope of the antigen, then an additional increase in signal is detected, e.g., a 5% or more, 10% or more, 15% or more, 20% or more, 25% or more, 30% or more, 35%, or more, 40% or more, 45% or more, 50% or more, 55% of more, 60% or more, 65% or more, 70% or more, 75% or more, 80% or more, 85% or more, 90% or more, or 95% or more increase in signal, e.g., RU, as compared to the highest signal detected upon binding of the reference antibody, e.g., the reference signal. If the test antibody binds to the same region or epitope of the antigen, then little or no increase in signal, e.g., RU, will be detected, e.g., less than 20%, less than 15%, less than 10%, less than 5%, less than 4%, less than 3%, less than 2%, or less than 1% increase in signal, e.g., RU, as compared to the highest signal detected upon binding of the reference antibody, e.g., the reference signal. When using this SPR-based competition assay, an antibody is said to compete with the reference antibody when less than 20%, less than 15%, less than 10%, less than 5%, less than 4%, less than 3%, less than 2%, or less than 1% increase in signal, e.g., RU, is detected when compared to the reference signal detected upon binding of the reference antibody to the antigen. An antibody is said to not compete, or compete poorly, with a reference antibody when a 5% or more, 10% or more, 15% or more, 20% or more, 25% or more, 30% or more, 35%, or more, 40% or more, 45% or more, 50% or more, 55% of more, 60% or more, 65% or more, 70% or more, 75% or more, 80% or more, 85% or more, 90% or more, or 95% or more increase in signal, e.g., RU, is detected when compared to the reference signal detected upon binding of the reference antibody to the antigen.
To determine the relative binding epitope of each of the scFvs in comparison to SS1, 50 nM SS1 was captured by biotinylated mesothelin ECD immobilized on a streptavidin sensor chip at a contact time of 180 seconds resulting in a relative density of 70 RU. Purified scFv at 100 nM (M5, M11, M12, M14, M16, M17, M21, or M23) was then immediately injected over the chip to minimize dissociation of the SS1/mesothelin complex. Binding of the secondary scFv was monitored for 270 seconds.

The next series deals with Ovcar8. As to the kind of experiment: Ovcar8 xenograft model (Example 8). Format: in vivo, NSG mice. Conditions: OVCAR8-mcherry; 10×10^6 T cells, about 4×10^6 CART cells. On the procedure: Anti-tumor activity of CART-MSLN was assessed in vivo in an Ovcar8 xenograft model. 10×10^6 Ovcar8 cells were implanted subcutaneously on day 0 in NSG mice. At day 14, 2×10^6 CART cells (CARTs expressing M5, M11, M17, M21, SS1, and CD19, or untransduced cells; 10×10^6 total T cells) in a 100 μl dose was administered intravenously. Mice and tumors were monitored for about 40 days after tumor cell implantation.
A second in vivo xenograft experiment was performed to assess the anti-tumor activity of a second set of CART-MSLN cells. 10×10^6 OVCAR8-mcherry cells were injected into NSG mice. Once tumors were 150-250 mm^2, mice were randomized into treatment groups. CARTs expressing M12, M14, M16, M23, ss1, CD19, or untreated cells were injected at a dose of 10×10^6 T cells in 100 μl. About 40% of T cells were expressing CAR, and therefore at the administered dosage, about 4×10^6 CART cells were delivered to each animal.

The next series relates to Ovcar3. As to the kind of experiment: Luciferase-based killing assay. Format: cell-based, human. On the procedure: The ability for the CART-MSLN to target and kill tumor cells was also assessed in vitro. A luciferase-based assay was used, with tumor cell lines expressing luciferase reporters. Target cells (tumor cells) were plated at 20,000 targets/well. CART-MSLN were added at varying effector:target ratios, from 10:1, 5:1, 2.5:1, and 1:1. The cells were cultured for 20 hours, and the luminescence of each well was detected to determine the percentage of target cells killed. Luciferase-expressing Ovcar3 (ovarian cancer) and U87 mg (glioblastoma) cell lines were used as target cells.

What is called Kd is the free concentration of one partner at which half of the binding sites on the other are occupied at equilibrium, for simple one-to-one binding.

“Also recorded” adds a separate entry of the source. Where only a bound is given, the exact number is not on record here.

T1 sequence (Q13421 with tags, fused parts or gaps): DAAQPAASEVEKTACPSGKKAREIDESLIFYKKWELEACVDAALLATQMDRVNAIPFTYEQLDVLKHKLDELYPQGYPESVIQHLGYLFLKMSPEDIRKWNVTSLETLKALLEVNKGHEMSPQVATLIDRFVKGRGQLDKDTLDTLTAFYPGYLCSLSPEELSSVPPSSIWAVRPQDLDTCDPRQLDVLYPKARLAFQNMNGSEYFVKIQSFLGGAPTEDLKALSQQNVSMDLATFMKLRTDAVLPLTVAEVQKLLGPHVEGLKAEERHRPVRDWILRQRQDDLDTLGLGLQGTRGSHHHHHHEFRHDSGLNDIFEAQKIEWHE

B1: M21: human anti-mesothelin scFv SEQ ID NO: 59; CDRs in Tables 4 and 5 (protein)
scFv: QVQLVQSWAEVKKPGASVKVSCKASGYTFTSYYMHWVRQAPGQGLEWMGIINPSGGSTSYAQKFQGRVTMTRDTSTSTVYMELSNLRSEDTAVYYCARSPRVTTGYFDYWGQGTLVTVSSGGGGSGGGGSGGGGSGGGGSDIQLTQSPSTLSASVGDRVTITCRASQSISSWLAWYQQKPGKAPKLLIYKASSLESGVPSRFSGSGSGTEFTLTISSLQPDDFATYYCQQYSSYPLTFGGGTRLEIK
Take B1: the Kd in series [1] is 110 nM. Also, the “% Monomer (SEC)” value in series [2] was over 98%. Further, the “relative epitope binning against SS1 on human mesothelin” value (“relative epitope binning against SS1” below) in series [3] was “Competitive binding; also recorded: competitive binders with SS1”.

B2: M12: human anti-mesothelin scFv SEQ ID NO: 50; full CAR SEQ ID NO: 74 (protein)
scFv: QVQLVQSGAEVKKPGASVKVSCKASGYTFTGYYMHWVRQAPGQGLEWMGRINPNSGGTNYAQKFQGRVTMTTDTSTSTAYMELRSLRSDDTAVYYCARTTTSYAFDIWGQGTMVTVSSGGGGSGGGGSGGGGSGGGGSDIQLTQSPSTLSASVGDRVTITCRASQSISTWLAWYQQKPGKAPNLLIYKASTLESGVPSRFSGSGSGTEFTLTISSLQPDDFATYYCQQYNTYSPYTFGQGTKLEIK
As to B2, in the series with Ovcar8, the “effect on tumor growth, second xenograft experiment” value is “did not have an effect on tumor growth”. The molecule also showed an equilibrium dissociation constant (Kd) in series [1] of 307 nM. For the same molecule, the “% Monomer (SEC)” value in series [2] was 70%. Also, the “relative epitope binning against SS1” value in series [3] was “Competitive binding; also recorded: competitive binders with SS1”.

B3: M14: human anti-mesothelin scFv SEQ ID NO: 52; full CAR SEQ ID NO: 76 (protein)
scFv: QVQLVQSGAEVRAPGASVKISCKASGFTFRGYYIHWVRQAPGQGLEWMGIINPSGGSRAYAQKFQGRVTMTRDTSTSTVYMELSSLRSDDTAMYYCARTASCGGDCYYLDYWGQGTLVTVSSGGGGSGGGGSGGGGSGGGGSDIQMTQSPPTLSASVGDRVTITCRASENVNIWLAWYQQKPGKAPKLLIYKSSSLASGVPSRFSGSGSGAEFTLTISSLQPDDFATYYCQQYQSYPLTFGGGTKVDIK
Take B3: the “effect on tumor growth, second xenograft experiment” value in the series with Ovcar8 is listed as “did not have an effect on tumor growth”. Also, in series [1], the ka was 2.75e+06 M⁻¹ s⁻¹, the kd amounted to 0.00251 s⁻¹ and the Kd was 0.9 nM. For the same molecule, the “% Monomer (SEC)” value in series [2] is recorded as 74.5%. Besides, the “relative epitope binning against SS1” value in series [3] is listed as “Competitive binding; also recorded: competitive binders with SS1”.

B4: M17: human anti-mesothelin scFv SEQ ID NO: 55; full CAR SEQ ID NO: 79 (protein)
scFv: EVQLVESGGGLVQPGRSLRLSCAASGFTFDDYAMHWVRQAPGKGLEWVSGISWNSGSTGYADSVKGRFTISRDNAKNSLYLQMNSLRAEDTALYYCAKDSSSWYGGGSAFDIWGQGTMVTVSSGGGGSGGGGSGGGGSSSELTQDPAVSVALGQTVRITCQGDSLRSYYASWYQQKPGQAPVLVIYGKNNRPSGIPDRFSGSSSGNTASLTITGAQAEDEADYYCNSRGSSGNHYVFGTGTKVTVL
B4: in series [1], the ka worked out at 522000 M⁻¹ s⁻¹, the kd was determined as 0.0145 s⁻¹ and the Kd came out at 27.8 nM. Moreover, the “% Monomer (SEC)” value in series [2] was over 98%. For the same molecule, in series [3], the “relative epitope binning against SS1” value is “Competitive binding; also recorded: competitive binders with SS1”. Besides, in the series on Ovcar3 (E:T 10:1 to 1:1, 20 hours, FIG. 16A), the “killing of target tumor cells” value was “performed similarly well in killing target tumor cells”. In the series with Ovcar3 (FIGS. 17A and 17B), the “specific killing within the panel of human meso CARs” value is given as “highest specific killing of Ovcar3 cells”.
